Data taken from patent US6204034A, “Leukotriene C4 synthase” (Merck Frosst Canada & Co., priority 1994, dated 2001).

Experiments:
[1] = Longevity of LTA4 free acid in mock incubation mixtures under aqueous conditions; format: physicochemical; conditions: mock incubation mixtures with 0.05% (w/v) bovine serum albumin and potassium phosphate buffer
Source text: Hydrolysis of LTA4 Methyl Ester--The methyl ester of leukotriene A4 was hydrolyzed to the free acid essentially as described by Carrier, D. J. et al., Prostaglandins Leukot. Essent. Fatty Acids, 34, 27-30 (1988). The hydrolysis was monitored by determination of LTA4 by reverse-phase HPLC at pH 10 (Wynalda, M. A. et al., Anal. Chem., 54, 1079-1082 (1982)) except that LTA4 and LTA4 -methyl ester were eluted by a gradient of 20 to 70% (v/v) acetonitrile in borate buffer instead of isocratically as described in Wynalda et al. LTA4 -methyl ester (1.0 mg in hexane) was dried under a stream of nitrogen and then dissolved in 4 mL of 0.25 M NaOH:acetone (2:8 v/v). Following incubation for 60 min. at 25° C., the hydrolysis mixture was portioned into aliquots that were stored at -80° C. (up to 1 month). Following this procedure, the recovery of LTA4 free acid was >95% as confirmed by analysis of the hydrolysis products by reverse-phase HPLC under alkaline conditions (Wynalda et al.).

LTC4 synthase [2] = target: T1, LTC4 synthase (Homo sapiens, UniProt Q16873); assay: Measurement of LTC4 synthase activity (LTC4 formation from LTA4 and reduced glutathione, reverse-phase HPLC); format: biochemical; set-up: endogenous in cells; host or cells: THP-1 cells; some values from human lung tissue
T1 sequence (Q16873 1-150): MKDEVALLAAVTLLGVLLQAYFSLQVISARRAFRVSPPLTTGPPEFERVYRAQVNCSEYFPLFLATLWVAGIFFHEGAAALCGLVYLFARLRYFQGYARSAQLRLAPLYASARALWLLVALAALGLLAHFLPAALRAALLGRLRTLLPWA
Method: The mixtures were allowed to stand for a minimum of 30 min. at 4° C. (or overnight). […] The bulk of the resulting supernatant (250 μl) was then transferred to sample vials for reverse-phase HPLC of which 200 μl was injected for analysis.
Analysis of LTC4 Formation by Reverse-Phase HPLC--The reaction products formed in the incubation mixtures described above were resolved by isocratic reverse-phase HPLC on a Waters Associates Novapak C18 column (3.9×150 mm, 4μ particle size). The mobile phase was acetonitrile:methanol:water:acetic acid at 54:14:28:1 adjusted to pH 5.6 with 10 NaOH and was pumped at a flow rate of 1.0 mL/min. LTC4 was quantified by on-line measurement of the optical density at 280 nm. The LTC4 peak was identified by its retention time compared to a synthetic standard (normally 10 min.).

LTC4 synthase [3] = target: T1, LTC4 synthase; conditions: LTC2-X-biotin:streptavidin-agarose column
[4] = target: T2, THP-1 microsomal membrane protein (Homo sapiens, UniProt Q16873); assay: Photoaffinity labelling of THP-1 cell membranes; format: binding; conditions: 20 pM ligand, 0.3 mg THP-1 microsomal membrane protein, SDS-gel autoradiography
T2 construct: 0.3 mg of THP-1 microsomal membrane protein; endogenous in cells; host or cells: THP-1 cells (microsomal membranes)
T2 sequence (Q16873 1-150): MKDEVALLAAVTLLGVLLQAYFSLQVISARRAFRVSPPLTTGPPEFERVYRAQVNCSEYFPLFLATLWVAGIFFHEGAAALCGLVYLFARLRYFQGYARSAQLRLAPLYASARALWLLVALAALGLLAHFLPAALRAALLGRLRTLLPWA
Method: The mixtures were incubated in 1.5 mL microcentrifuge tubes for 30 min. at 25° C. then transferred to 35 mm diameter cluster plate wells for photolysis. The samples in cluster plates were cooled for 5 min. at 4° C. then illuminated from above with a 40W ultraviolet light source (Phillips, λmax =350 nm) at a distance of 5 cm for 2 min. at 4° C. The samples were then transferred back into 1.5 mL microcentrifuge tubes and the membranes were re-isolated by centrifugation for 15 min. at 200,000×g. The resulting pellets were dissociated in SDS-containing sample buffer, denatured at 95° C. for 5 min. and then the proteins were resolved by SDS-gel electrophoresis. Radioactive bands in the dried gels were visualized by autoradiography and quantified by laser densitometry.

[5] = substrate: N[C@@H](CCC(=O)N[C@@H](CS)C(=O)NCC(=O)O)C(=O)O; assay: purified protein, by the assay type; conditions: 25.0 °C
[6] = substrate: CCCCCC=CCC=CC=CC=CC1OC1CCCC(=O)O; assay: purified protein, by the assay type; format: biochemical, human; conditions: 25.0 °C
[7] = other: THP-1 cells LTC4 synthase
[8] = other: human monocytes LTC4 synthase
[9] = purification fractions from 2×10^11 THP-1 cells

CCCCCC=CCC=CC=CC=CC1OC1CCCC(=O)O (stereo not shown) [LTA4, leukotriene A4, reference compound]
half-life [1]: approximately 30 min.
Preferred substrate (LTC4 synthase [2]): LTA4 free acid >> LTA4 methyl ester

N[C@@H](CCC(=O)N[C@@H](CS)C(=O)NCC(=O)O)C(=O)O [GSH, Reduced glutathione, reference compound]
effect on LTC4 synthase binding to the affinity resin (LTC4 synthase [3]): inhibited LTC4 synthase binding to the affinity resin

CCCCC/C=C\C\C=C/C=C/C=C/[C@@H](SC[C@H](NC(=O)CC[C@H](NC(=O)CCCCCNC(=O)c1cc([125I])c(N=[N+]=[N-])cc1O)C(=O)O)C(=O)NCC(=O)O)[C@@H](O)CCCC(=O)O [Azido^125 I LTC4]
photoaffinity radiolabelling of membrane polypeptide [4]: specifically radiolabelled a single membrane polypeptide

CCCCCC=CCC=CC=CC=CC1OC1CCCC(=O)OC (stereo not shown) [LTA4 methyl ester, methyl ester of leukotriene A4, reference compound]
Preferred substrate (LTC4 synthase [2]): LTA4 free acid >> LTA4 methyl ester

[Cl-].[Na+] [NaCl]
effect on LTC4 synthase binding to the affinity resin (LTC4 synthase [3]): inhibited LTC4 synthase binding to the affinity resin

B1: LTC4 synthase (Homo sapiens) (protein)
chain: MKDEVALLAAVTLLGVLLQAYFSLQVISARRAFRVSPPLTTGPPEFERVYRAQVNCSEYFPLFLATLWVAGIFFHEGAAALCGLVYLFARLRYFQGYARSAQLRLAPLYASARALWLLVALAALGLLAHFLPAALRAALLGRLRTLLPWA
notes: endogenous in cells; host or cells: THP-1 cells; some values from human lung tissue
Km [5, 7]: 1670 µM
Km [5, 8]: 1200 µM
Km [6, 7]: 9.89 µM
Km [6, 8]: 5.6 µM
Activity (LTC4 synthase [2]; [9]): 1.378 nmol · min^-1 .multid
Spec. Activity (LTC4 synthase [2]; [9]): 4135 nmol · min^-1 .multid
Rel. Spec. Activity (LTC4 synthase [2]; relative to specific activity in harvested cells set at 1.00): 27,384
